Measurements reported in US20260232827A1 (Zymeworks, published 2026).
Each block holds one binder with its values, some of them ahead of it.

What was measured:
[1] = target: T1, human sodium-dependent phosphate transporter 2B (NaPi2b) (human, UniProt O95436 1-690); experiment: flow cytometry, IGROV-1 cells (endogenous NaPi2b); parameters: unit not given here
T1 construct: UniProt ID is given as 095436 [sic]; also called hNaPi2b; Hu NaPi2b
T1 sequence: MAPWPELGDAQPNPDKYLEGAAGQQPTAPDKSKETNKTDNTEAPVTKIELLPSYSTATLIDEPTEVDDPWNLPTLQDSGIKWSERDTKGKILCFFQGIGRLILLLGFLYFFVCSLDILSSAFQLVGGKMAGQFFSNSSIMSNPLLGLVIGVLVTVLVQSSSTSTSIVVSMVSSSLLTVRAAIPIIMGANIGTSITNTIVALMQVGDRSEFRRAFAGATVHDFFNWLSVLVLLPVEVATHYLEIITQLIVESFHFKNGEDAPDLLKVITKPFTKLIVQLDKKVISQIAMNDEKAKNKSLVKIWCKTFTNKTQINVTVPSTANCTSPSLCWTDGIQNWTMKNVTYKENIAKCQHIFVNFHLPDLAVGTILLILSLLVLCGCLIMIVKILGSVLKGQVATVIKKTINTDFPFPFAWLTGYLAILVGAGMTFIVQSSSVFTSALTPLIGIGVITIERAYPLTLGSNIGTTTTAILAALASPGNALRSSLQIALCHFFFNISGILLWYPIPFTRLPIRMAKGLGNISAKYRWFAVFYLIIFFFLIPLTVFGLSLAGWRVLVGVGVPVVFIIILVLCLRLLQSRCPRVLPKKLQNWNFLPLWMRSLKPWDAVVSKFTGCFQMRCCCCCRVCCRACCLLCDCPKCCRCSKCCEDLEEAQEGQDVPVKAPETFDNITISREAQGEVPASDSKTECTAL

[2] = target: T1, human sodium-dependent phosphate …; experiment: flow cytometry on IGROV-1 cells (endogenous NaPi2b), 24 h at 4 C, anti-human IgG Fc AF647
Procedure: (§1) Briefly, cells were seeded at 50,000 cells/well in conical-bottom 96-well plates and treated with test antibody for 24 hours at 4° C. to prevent internalization. […] Following incubation and washing, fluorescence was detected by flow cytometry on a BD LSRFortessa™ Cell Analyzer (BD Biosciences, Franklin Lake, NJ) with 1,000 minimum events collected per well.

[3] = target: T2, KLH (Sigma-Aldrich, H8283); experiment: non-specific ELISA, KLH coated, antibody 100 nM
T2 construct: Coating of the non-specific ELISA
Procedure: NS-ELISA was used to measure the propensity of the antibodies to bind to a range of biomolecules to emulate the undesirable non-specific interactions to biological matrices in vivo as described below.
NS-ELISA was carried out in Corning® 96-well EIA/RIA Easy Wash™ Clear Flat Bottom Polystyrene High Bind Microplate coated overnight at 4° C. with 50 μL of Heparin (Sigma, H3149) diluted with 50 mM sodium carbonate pH 9.6 to a final concentration of 250 μg/mL. The plate was incubated for 2 days at room temperature, wells that were coated with heparin were not covered to allow air dry. […] 50 μL each of insulin, KLH, dsDNA and ssDNA were added to a 96 well plate, followed by the incubation at 37° C. for 2 h. The coating materials were removed, and the plate was blocked with 200 μL of Gibco™ PBS pH7.4, 0.1% Tween®20, and incubated for 1 h at room temperature with shaking at 200 rpm. The plate was washed 3 times with Gibco™ PBS pH7.4, 0.1% Tween 20. 50 μL of each mAb at 100 nM (15 mg/mL) in Gibco™ PBS pH 7.4, 0.1% Tween®20 was added in duplicate to the wells and incubated for 1 h at room temperature with shaking at 200 rpm. […] Plates were incubated for 1 h at room temperature, with shaking at 200 rpm. The plate was washed three times with Gibco™ PBS pH7.4, 0.1% Tween 20, and 100 μL of TMB substrate (Cell Signaling Technology©, 7004P6) added to each well. […] Binding scores were calculated as the ratio of the ELISA signal of the antibody to the signal of a well containing buffer instead of the primary antibody.

[4] = target: T1, human sodium-dependent phosphate …; experiment: flow cytometry, IGROV-1 cells (endogenous NaPi2b); apparent Kd
Procedure: as §1

[5] = target: T1, human sodium-dependent phosphate …; experiment: flow cytometry on IGROV-1 cells (endogenous NaPi2b), 24 h at 4 C, anti-human IgG Fc AF647; remark: listed apart in the source
Procedure: (§2) Following incubation and washing, fluorescence was detected by flow cytometry on a BD LSRFortessa™ Cell Analyzer (BD Biosciences, Franklin Lake, NJ) with 1,000 minimum events collected per well.

[6] = target: T1, human sodium-dependent phosphate …; experiment: flow cytometry on OVCAR-3 cells (endogenous NaPi2b), 24 h at 4 C, anti-human IgG Fc AF647
Procedure: as §2

cynomolgus monkey NaPi2b = target: T3, cynomolgus monkey NaPi2b (cynomolgus monkey, UniProt O95436 1-690 (human entry)); experiment: flow cytometry on HEK293-6e cells transfected with cynomolgus monkey NaPi2b, 24 h at 4 C, anti-human IgG Fc AF647
T3 construct: also called Cyno NaPi2b; Cy NaPi2b
T3 chain: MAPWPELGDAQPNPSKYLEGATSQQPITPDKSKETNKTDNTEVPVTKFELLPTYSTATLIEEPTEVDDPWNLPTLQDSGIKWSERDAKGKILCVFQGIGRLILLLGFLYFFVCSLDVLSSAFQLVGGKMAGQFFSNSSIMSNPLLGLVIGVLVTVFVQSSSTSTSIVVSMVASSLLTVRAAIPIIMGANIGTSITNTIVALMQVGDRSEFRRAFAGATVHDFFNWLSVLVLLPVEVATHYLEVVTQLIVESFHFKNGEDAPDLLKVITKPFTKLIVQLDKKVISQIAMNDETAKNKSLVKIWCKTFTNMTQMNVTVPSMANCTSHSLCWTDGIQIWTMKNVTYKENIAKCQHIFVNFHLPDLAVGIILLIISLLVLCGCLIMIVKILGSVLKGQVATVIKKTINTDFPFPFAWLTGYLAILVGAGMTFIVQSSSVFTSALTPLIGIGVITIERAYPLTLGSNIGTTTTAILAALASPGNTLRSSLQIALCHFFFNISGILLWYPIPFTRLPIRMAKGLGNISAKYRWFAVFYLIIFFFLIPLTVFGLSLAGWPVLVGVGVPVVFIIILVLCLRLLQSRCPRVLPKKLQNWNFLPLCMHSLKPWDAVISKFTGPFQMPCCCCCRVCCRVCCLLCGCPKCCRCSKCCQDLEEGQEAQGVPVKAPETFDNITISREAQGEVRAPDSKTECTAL
Procedure: (§3) Following transfection, cells were seeded at 50,000 cells/well in conical-bottom 96-well plates and treated with test antibody or antibody-drug conjugate for 24 hours at 4° C. to prevent internalization. […] Following incubation and washing, fluorescence was detected by flow cytometry on a BD LSRFortessa™ Cell Analyzer (BD Biosciences, Franklin Lake, NJ) with 1,000 minimum events collected per well.

mouse NaPi2b = target: T4, mouse NaPi2b (mouse, UniProt Q9DBP0 1-697); experiment: flow cytometry on HEK293-6e cells transfected with mouse NaPi2b, 24 h at 4 C, anti-human IgG Fc AF647
T4 construct: also called Ms NaPi2b; CL #13476
T4 sequence: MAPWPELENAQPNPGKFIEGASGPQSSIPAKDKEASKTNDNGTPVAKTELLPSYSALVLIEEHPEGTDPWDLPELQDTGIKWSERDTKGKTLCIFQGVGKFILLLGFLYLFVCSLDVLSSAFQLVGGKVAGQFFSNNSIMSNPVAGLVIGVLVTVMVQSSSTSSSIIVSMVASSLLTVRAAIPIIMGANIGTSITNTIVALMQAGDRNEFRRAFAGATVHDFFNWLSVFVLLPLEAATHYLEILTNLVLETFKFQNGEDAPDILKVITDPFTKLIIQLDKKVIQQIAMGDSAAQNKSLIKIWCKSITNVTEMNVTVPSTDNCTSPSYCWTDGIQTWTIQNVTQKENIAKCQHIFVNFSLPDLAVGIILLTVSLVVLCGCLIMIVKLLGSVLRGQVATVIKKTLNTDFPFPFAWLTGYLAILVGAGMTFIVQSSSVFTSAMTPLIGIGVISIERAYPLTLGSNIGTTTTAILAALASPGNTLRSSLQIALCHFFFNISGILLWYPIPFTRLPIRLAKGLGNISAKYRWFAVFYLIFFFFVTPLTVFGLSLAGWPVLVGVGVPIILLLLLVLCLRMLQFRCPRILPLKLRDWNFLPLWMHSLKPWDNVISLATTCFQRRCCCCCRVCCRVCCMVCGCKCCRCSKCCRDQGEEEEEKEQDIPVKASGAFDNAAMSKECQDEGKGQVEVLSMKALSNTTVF
Procedure: as §3

[7] = target: T1, human sodium-dependent phosphate …; experiment: flow cytometry on HCC-78 cells (endogenous NaPi2b), 24 h at 4 C, anti-human IgG Fc AF647, APC-A GeoMean
Procedure: (§4) Cells were maintained under standard culture conditions (37° C./5% CO₂) until assay set-up. […] Cells were removed from culture vessels using Cell Dissociation Buffer (Invitrogen, Waltham, MA), seeded at 50,000 cells/well in conical-bottom 96-well plates, and treated with test antibody or antibody-drug conjugate for 24 hours at 4° C. to prevent internalization. […] Following incubation and washing, fluorescence was detected by flow cytometry on a BD LSRFortessa™ Cell Analyzer (BD Biosciences, Franklin Lake, NJ) with 1,000 minimum events collected per well.

[8] = target: T1, human sodium-dependent phosphate …; experiment: flow cytometry on IGROV-1 cells (endogenous NaPi2b), 24 h at 4 C, anti-human IgG Fc AF647, APC-A GeoMean
Procedure: as §4

[9] = target: T1, human sodium-dependent phosphate …; experiment: flow cytometry on H441 cells (endogenous NaPi2b), 24 h at 4 C, anti-human IgG Fc AF647, APC-A GeoMean
Procedure: as §4

Biotinylated human FcRn = target: T5, Biotinylated human FcRn (human, UniProt P55899 24-297; P61769 21-119, limits assumed, biotinylated (site not stated)); experiment: SPR (Biacore T200), biotinylated FcRn on neutravidin, antibody as analyte, pH 5.9, steady-state fit
T5 construct: also called Biotinlated human FcRn; human neonatal fragment crystallizable receptor (FcRn)

[10] = target: T6, human FcγR I CD64 (Sino Biological Inc. 10256-H08H) (human, UniProt P12314 16-288); experiment: SPR (Biacore T200), antibody captured on protein A, FcγR as analyte, multicycle, 1:1 fit
T6 construct: Bought reagent
Procedure: (§5) Approximately 400-600 RUs of each antibody (2 μg/mL) were captured on the protein A surface on flow cell 2, 3 and 4 by injecting at 10 μL/min for 60 s. Flow cell 1 was used as a reference surface. […] Each in-house FcγR with five concentrations were flowed as analyte using single-cycle kinetics strategy. The flow rate of FcγRs was 50 L/min with contact time of 40 sec and dissociation time of 120 sec. For the high affinity FcγRI CD64, multicycle kinetics were applied. The flow rate of the analyte was 100 L/min with contact time of 100 sec and dissociation time of 650 sec. Blank buffer control was injected using the same flow rate and contact time for each cycle. Surface regeneration was accomplished using 10 mM glycine-HCl, pH 1.5 (Cytiva©, BR100354) for 30 sec with a flow rate of 50 μL/min after each cycle. Binding constants and the maximum observed binding signal (Rmax) were determined using the Biacore™ T200 Evaluation software (version 3.0; GE Healthcare). For single-cycle kinetics, blank-subtracted sensorgrams were analyzed using steady state affinity fitting model. For multicycle kinetics, results were fit to the 1:1 Langmuir binding model.

[11] = target: T7, human FcγR IIA H131 CD32aH (v5774) (human, UniProt P12318 34-217, limits assumed); experiment: SPR (Biacore T200), antibody captured on protein A, FcγR as analyte, single-cycle, steady-state fit;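 further: five FcγR concentrations per single cycle, 40 s association then 120 s dissociation, responses corrected against a reference flow cell and blank buffer injections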
T7 construct: In-house reagent
T7 sequence (looked up): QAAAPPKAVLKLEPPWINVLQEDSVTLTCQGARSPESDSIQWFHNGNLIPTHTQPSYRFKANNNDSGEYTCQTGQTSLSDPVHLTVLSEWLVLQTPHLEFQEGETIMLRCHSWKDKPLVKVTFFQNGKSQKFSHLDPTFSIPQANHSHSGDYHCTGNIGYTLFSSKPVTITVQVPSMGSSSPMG
Procedure: as §5

[12] = target: T8, human FcγR IIIA V159 CD16aV (v5773) (human, UniProt P08637 17-208, limits assumed); experiment: as above
T8 construct: In-house reagent
Procedure: as §5

[13] = target: T9, human FcγR IIA R131 CD32aR (v5775) (human, UniProt P12318 34-217, limits assumed); experiment: as above
T9 construct: In-house reagent
T9 sequence (looked up): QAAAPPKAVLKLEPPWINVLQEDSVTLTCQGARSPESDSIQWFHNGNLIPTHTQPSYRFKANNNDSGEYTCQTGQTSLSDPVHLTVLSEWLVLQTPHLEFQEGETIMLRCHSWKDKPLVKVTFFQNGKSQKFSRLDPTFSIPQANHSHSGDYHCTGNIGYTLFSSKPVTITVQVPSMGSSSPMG
Procedure: as §5

[14] = target: T10, human FcγR IIB Y160 CD32bY (v5777) (human, UniProt P31994 43-217, limits assumed); experiment: as above
T10 construct: In-house reagent
T10 sequence (looked up): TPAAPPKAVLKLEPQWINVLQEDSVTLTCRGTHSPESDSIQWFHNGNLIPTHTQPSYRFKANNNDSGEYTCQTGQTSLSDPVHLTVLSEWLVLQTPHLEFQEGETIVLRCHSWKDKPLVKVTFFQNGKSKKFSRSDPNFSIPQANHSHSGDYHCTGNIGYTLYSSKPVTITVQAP
Procedure: as §5

T8 sequence (P08637 17-208 F176V limits assumed): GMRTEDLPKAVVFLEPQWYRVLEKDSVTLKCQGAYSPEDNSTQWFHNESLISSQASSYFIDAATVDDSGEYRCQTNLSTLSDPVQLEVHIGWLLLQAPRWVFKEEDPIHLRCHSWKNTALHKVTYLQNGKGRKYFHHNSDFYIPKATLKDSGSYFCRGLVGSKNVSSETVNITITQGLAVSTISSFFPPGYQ
T6 sequence (P12314 16-288 limits assumed): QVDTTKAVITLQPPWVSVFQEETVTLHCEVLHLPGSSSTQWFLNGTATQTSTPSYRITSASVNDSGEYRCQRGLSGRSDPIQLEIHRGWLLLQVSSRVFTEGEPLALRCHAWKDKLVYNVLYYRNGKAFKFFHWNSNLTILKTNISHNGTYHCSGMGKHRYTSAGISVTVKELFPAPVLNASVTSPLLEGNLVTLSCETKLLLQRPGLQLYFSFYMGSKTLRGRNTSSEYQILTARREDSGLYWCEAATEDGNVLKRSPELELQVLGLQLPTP

Bmax [1]: 43700 | EC50 (read off the curve) [2]: ~0.8 nM | NS-ELISA binding score (signal over buffer well) [3]: 2.38 | Kd [4]: 0.84 nM
B1: v23855 (parental mouse-human chimeric anti-NaPi2b antibody) (antibody, human IgG1, kappa, V domains shown)
VH: QAYLQQSGAELVRPGASVKMSCKASGFTFTSYNVHWVKQTPRQGLEWIAAISPGNGDLSYNQRFKDKATLTVDRSSSTAYMQLSGLTSEDSAVYFCARGRTGMGAVDYWGQGTSVTVSS
VL: DVQMTQTASSLSASLGDRVTISCRASQDVYSYLNWYQQKPHGTVKLLIYYTSRLQSGVPSRFTGSGSGTDYSLTISNLEPEDIATYYCQQYNIFPWTFGGGTKLEIKR
notes: IgG1/kappa full-size antibody; also called parental chimeric

Binding percentage (Biotinylated human FcRn): 27% | Kd (Biotinylated human FcRn): 132 nM | Binding percentage [10]: 6.4% | Kd [10]: 3.79 nM | Binding percentage [11]: 63.8% | Kd [11]: 29.2 µM | Binding percentage [12]: 41.5% | Kd [12]: 4.02 µM | Binding percentage [13]: 58% | Kd [13]: 29.3 µM | Binding percentage [14]: 53.2% | Kd [14]: 48.7 µM
B4: v40554 (LALA) anti-NaPi2b antibody (antibody)
chain 1: not shown
chain 2: DVQMTQSPSSLSASVGDRVTITCRASQDVYSYLNWYQQKPGKAVKLLIYYTSRLQSGVPSRFSGSGSGTDYTLTISSLQPEDFATYYCQQYNIFPWTFGQGTKLEIKRTVAAPSVFIFPPSDEQLKSGTASVVCLLNNFYPREAKVQWKVDNALQSGNSQESVTEQDSKDSTYSLSSTLTLSKADYEKHKVYACEVTHQGLSSPVTKSFNRGEC

Second part, the binder before the results:

B2: v38591-MC-GGFG-AM-Compound 139 DAR 8 (antibody, human IgG1, kappa)
heavy: not shown
light: DVQMTQSPSSLSASVGDRVTITCRASQDVYSYLNWYQQKPGKAVKLLIYYTSRLQSGVPSRFSGSGSGTDYTLTISSLQPEDFATYYCQQYNIFPWTFGQGTKLEIKRTVAAPSVFIFPPSDEQLKSGTASVVCLLNNFYPREAKVQWKVDNALQSGNSQESVTEQDSKDSTYSLSSTLTLSKADYEKHKVYACEVTHQGLSSPVTKSFNRGEC
modifications: as above; MC-GGFG-AM-Compound 139 drug-linker on cysteines freed by TCEP reduction; sites not stated; DAR 8
notes: Antibody-drug conjugate of v38591; also called v38593
EC50 (read off the curve) [5]: ~2 nM | EC50 (read off the curve) [6]: ~3 nM | EC50 (read off the curve) (cynomolgus monkey NaPi2b): ~0.5 nM | EC50 (read off the curve) (mouse NaPi2b): ~0.6 nM

B3: v38591-MC-GGFG-AM-Compound 139 DAR 4 (antibody, human IgG1, kappa)
heavy: not shown
light: DVQMTQSPSSLSASVGDRVTITCRASQDVYSYLNWYQQKPGKAVKLLIYYTSRLQSGVPSRFSGSGSGTDYTLTISSLQPEDFATYYCQQYNIFPWTFGQGTKLEIKRTVAAPSVFIFPPSDEQLKSGTASVVCLLNNFYPREAKVQWKVDNALQSGNSQESVTEQDSKDSTYSLSSTLTLSKADYEKHKVYACEVTHQGLSSPVTKSFNRGEC
modifications: as above; MC-GGFG-AM-Compound 139 drug-linker on cysteines freed by TCEP reduction; sites not stated; DAR 4
notes: Antibody-drug conjugate of v38591
EC50 (read off the curve) [7]: ~3 nM | EC50 (read off the curve) [5]: ~2 nM | EC50 (read off the curve) [8]: ~2 nM | EC50 (read off the curve) [9]: ~0.6 nM | EC50 (read off the curve) [6]: 2 to 3 nM | EC50 (read off the curve) (cynomolgus monkey NaPi2b): ~0.4 nM
